Experimental data as given in patent US20200123260A1 (Pfizer, published 2020).
Numbering of substitutions follows the chain as printed.

Key:
[1] = biological target: T1, rhTrkB-ECD (R&D #397-TR/CF) (human, UniProt Q16620 32-430); experiment: competition ELISA on coated rhTrkB-ECD; competitor biotinylated chimeric TOA-1 at 25 ng/ml
T1 construct: extracellular domain; Bought protein; also called human TrkB-extracellular domain protein; human TrkB ectodomain protein

[2] = biological target: T1, rhTrkB-ECD (R&D #397-TR/CF); experiment: SPR (Biacore), TrkB ectodomain immobilised on CM5, antibody injected
[3] = biological target: T2, Mouse TrkB ectodomain protein (R&D #1494-TB/CF) (mouse, UniProt P15209 32-429); experiment: as above
T2 construct: extracellular domain; Bought protein; also called mouse TrkB-extracellular domain protein

[4] = biological target: T1, rhTrkB-ECD (R&D #397-TR/CF); experiment: competition ELISA: plate coated with rhTrkB-ECD; biotinylated chimeric TOA-1 at 25 ng/ml mixed with the unlabeled antibody; streptavidin-HRP
[5] = biological target: T3, recombinant human TrkC-Fc (rhTrkC-ECD, R&D system, 373-TC/TF) (human, UniProt Q16288 32-429); experiment: direct binding ELISA: plate coated with rhTrkC-ECD (Fc chimera) at 5 ug/ml, biotinylated antibody, streptavidin-HRP
T3 construct: extracellular domain; Bought protein; not shown: Fc part, not described

[6] = biological target: T4, recombinant human TrkA-Fc (rhTrkA-ECD, R&D system, 175-TK) (human, UniProt P04629 33-423); experiment: direct binding ELISA: plate coated with rhTrkA-ECD (Fc chimera) at 5 ug/ml, biotinylated antibody, streptavidin-HRP
T4 construct: extracellular domain; Bought protein; not shown: Fc part, not described

[7] = biological target: T5, mouse TrkB (nm_001025074) on HEK293 cells (mouse, UniProt P15209 32-821); experiment: cell-based ELISA on transfected 293 cells
T5 construct: whole, on cells; also called rmuTrkB-CRE

[8] = biological target: T6, TrkB, Cat (Felis domesticus) on 293 cells (cat (Felis domesticus)); experiment: cell-based ELISA on transfected 293 cells
T6 construct: Whole entry with signal peptide; also called cat TrkB

[9] = biological target: Human TrkA, NP_002520, cell-surface expressed on transfected 293 cells (human, UniProt P04629 33-796); experiment: cell-based ELISA on transfected 293 cells, HRP-conjugated secondary antibody, TMB, OD450
Chimeric TrkB (d5TrkA) = biological target: T7, Chimeric TrkB (d5TrkA) (human, UniProt Q16620 32-822); experiment: as above
T7 construct: TrkB residues 284-377 replaced by TrkA residues 280-377

Chimeric TrkA (d4TrkB) = biological target: T8, Chimeric TrkA (d4TrkB) (human); experiment: as above
T8 construct: TrkA residues 187-281 replaced by TrkB residues 190-282

[10] = biological target: hTrkB-a isoform fused to a small peptide epitope, in U2OS cells (Discoverx Pathhunter) (human, UniProt Q16620 32-822); experiment: cell-based or functional assay
[11] = biological target: hTrkC in the SHC1 recruitment assay (U2OS, Discoverx Pathhunter) (human, UniProt Q16288 32-839); experiment: cell-based or functional assay
[12] = biological target: human TrkB (open reading frame from nm_006180) on HEK293 cells (human, UniProt Q16620 32-822); experiment: cell-based or functional assay
Sequence of human TrkB (open reading frame from nm_006180) on HEK293 cells (Q16620 32-822): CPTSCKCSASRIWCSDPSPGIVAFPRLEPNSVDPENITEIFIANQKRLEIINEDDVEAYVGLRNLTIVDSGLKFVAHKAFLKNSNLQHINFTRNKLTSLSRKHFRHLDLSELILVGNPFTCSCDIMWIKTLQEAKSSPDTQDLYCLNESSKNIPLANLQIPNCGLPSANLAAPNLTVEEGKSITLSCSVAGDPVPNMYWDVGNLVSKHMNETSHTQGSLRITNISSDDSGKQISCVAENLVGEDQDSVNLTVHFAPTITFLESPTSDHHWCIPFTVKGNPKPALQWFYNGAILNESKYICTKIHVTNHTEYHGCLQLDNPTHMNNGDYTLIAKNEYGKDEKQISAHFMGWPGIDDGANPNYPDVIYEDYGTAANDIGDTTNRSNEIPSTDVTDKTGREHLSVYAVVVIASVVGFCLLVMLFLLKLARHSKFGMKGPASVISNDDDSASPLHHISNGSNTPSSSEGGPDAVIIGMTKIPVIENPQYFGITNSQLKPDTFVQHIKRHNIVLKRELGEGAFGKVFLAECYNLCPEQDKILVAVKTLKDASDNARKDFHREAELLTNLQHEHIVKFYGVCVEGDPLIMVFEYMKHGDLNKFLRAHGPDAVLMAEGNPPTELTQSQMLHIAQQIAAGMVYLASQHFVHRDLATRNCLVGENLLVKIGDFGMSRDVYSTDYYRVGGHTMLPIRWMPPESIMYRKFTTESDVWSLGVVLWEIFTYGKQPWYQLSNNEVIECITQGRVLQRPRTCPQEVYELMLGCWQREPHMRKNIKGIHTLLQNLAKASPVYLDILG

T2 sequence (P15209 32-429): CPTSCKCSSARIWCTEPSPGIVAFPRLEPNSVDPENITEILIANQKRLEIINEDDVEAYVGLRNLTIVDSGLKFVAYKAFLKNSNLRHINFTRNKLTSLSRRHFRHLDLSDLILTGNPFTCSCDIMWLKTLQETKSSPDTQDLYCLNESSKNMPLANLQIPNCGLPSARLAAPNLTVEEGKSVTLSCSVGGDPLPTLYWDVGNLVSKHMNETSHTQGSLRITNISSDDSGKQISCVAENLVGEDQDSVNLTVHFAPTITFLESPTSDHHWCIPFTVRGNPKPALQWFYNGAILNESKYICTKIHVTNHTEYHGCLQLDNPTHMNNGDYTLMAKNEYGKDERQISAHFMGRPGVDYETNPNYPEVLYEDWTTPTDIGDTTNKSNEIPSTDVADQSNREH
T1 sequence (Q16620 32-430): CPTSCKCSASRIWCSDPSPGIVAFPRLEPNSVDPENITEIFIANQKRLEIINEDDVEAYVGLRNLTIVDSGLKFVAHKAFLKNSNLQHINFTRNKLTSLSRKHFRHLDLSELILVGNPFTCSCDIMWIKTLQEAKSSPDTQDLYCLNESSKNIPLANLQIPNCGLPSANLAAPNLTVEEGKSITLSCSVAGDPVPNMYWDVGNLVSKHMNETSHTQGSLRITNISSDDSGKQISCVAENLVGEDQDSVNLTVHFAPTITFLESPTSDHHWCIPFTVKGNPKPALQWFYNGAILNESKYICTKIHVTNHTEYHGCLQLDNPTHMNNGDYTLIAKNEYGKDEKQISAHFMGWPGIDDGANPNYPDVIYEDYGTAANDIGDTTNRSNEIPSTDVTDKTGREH
Sequence of hTrkB-a isoform fused to a small peptide epitope, in U2OS cells (Discoverx Pathhunter) (Q16620 32-430): as above
T8 sequence (chain, as listed by the source mutant limits assumed): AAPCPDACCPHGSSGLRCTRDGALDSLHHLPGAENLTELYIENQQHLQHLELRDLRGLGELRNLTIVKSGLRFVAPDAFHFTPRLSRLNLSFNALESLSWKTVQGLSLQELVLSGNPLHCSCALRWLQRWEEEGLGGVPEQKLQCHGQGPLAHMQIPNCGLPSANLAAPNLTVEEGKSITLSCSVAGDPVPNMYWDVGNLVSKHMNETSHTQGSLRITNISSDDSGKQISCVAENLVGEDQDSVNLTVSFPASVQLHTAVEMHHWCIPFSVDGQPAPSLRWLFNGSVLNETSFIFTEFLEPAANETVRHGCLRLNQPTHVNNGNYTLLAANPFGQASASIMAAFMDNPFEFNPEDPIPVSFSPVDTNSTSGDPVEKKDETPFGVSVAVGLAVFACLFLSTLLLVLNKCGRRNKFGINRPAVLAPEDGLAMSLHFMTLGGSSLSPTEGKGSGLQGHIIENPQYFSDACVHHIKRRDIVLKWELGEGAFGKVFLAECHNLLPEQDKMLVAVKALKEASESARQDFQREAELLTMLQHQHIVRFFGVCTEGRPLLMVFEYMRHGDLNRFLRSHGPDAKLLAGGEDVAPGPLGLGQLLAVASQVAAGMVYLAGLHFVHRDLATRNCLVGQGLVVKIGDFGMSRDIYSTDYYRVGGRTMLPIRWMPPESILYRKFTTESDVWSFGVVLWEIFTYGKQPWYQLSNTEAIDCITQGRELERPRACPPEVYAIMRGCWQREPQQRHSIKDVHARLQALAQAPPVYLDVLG
T6 sequence (chain, as listed by the source limits assumed): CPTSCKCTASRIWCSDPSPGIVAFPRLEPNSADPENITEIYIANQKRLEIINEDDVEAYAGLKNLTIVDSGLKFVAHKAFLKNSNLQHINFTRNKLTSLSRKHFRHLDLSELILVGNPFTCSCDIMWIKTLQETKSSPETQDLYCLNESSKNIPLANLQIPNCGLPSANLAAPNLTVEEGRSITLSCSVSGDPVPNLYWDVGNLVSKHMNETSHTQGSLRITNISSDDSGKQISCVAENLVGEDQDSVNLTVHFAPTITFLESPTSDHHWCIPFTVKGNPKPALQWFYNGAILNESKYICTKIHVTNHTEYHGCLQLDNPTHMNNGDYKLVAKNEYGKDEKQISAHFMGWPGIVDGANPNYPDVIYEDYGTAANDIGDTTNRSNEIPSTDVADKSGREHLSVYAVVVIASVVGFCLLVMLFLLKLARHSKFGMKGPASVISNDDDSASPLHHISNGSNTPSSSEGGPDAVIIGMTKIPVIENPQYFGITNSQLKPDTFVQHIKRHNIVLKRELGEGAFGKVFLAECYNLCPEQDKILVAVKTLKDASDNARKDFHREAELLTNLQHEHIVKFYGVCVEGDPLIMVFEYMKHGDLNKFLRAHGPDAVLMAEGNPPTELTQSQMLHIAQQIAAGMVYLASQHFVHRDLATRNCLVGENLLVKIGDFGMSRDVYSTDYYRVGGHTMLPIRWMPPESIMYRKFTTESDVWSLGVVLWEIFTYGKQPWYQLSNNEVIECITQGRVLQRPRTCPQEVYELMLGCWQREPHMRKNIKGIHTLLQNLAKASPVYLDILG
T4 sequence (P04629 33-423): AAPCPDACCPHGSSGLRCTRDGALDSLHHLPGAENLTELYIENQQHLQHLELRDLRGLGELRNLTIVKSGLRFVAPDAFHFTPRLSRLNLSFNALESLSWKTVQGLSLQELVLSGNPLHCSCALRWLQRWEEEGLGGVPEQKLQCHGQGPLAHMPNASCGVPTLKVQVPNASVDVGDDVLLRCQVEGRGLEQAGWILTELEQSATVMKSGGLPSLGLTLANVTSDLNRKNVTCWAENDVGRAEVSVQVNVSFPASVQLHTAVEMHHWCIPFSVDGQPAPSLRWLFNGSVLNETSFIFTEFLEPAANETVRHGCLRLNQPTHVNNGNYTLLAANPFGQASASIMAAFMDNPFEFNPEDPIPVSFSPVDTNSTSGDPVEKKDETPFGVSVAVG
Sequence of hTrkC in the SHC1 recruitment assay (U2OS, Discoverx Pathhunter) (Q16288 32-839): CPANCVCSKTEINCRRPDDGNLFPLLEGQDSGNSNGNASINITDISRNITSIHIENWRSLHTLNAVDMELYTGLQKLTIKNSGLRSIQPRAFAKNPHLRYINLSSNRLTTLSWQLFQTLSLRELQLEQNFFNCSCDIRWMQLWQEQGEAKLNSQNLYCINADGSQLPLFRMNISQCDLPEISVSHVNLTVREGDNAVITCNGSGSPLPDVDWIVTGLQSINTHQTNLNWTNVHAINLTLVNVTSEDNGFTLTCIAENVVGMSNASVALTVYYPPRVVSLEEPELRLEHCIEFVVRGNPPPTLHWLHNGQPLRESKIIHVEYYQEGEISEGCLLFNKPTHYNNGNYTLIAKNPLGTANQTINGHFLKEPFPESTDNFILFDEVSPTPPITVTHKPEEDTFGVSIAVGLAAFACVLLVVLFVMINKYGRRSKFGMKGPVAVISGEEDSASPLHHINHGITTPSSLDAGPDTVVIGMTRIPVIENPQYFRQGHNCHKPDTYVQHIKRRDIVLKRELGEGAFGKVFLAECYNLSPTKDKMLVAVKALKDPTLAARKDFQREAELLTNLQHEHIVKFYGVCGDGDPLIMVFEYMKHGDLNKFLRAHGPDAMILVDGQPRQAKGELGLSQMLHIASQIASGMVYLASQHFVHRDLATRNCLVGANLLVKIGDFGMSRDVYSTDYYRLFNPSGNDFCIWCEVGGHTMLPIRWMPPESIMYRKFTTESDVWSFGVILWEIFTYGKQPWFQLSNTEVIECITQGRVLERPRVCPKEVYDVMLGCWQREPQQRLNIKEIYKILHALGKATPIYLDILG

B1: TOA-1 variant VH human v1.1 / VL human v1.0 (antibody, V domains shown)
VH: EVQLVESGGGLVQPGGSLRLSCATSGYSFTAYFMNWVRQAPGKGLEWVARINPNNGDTFYTQKFKGRFTISVDNAKNSAYLQMNSLRAEDTAVYYCARRDYFGAMDYWGQGTLVTVSS
VL: DIQMTQSPSSLSASVGDRVTITCRASQTISNNLHWYQQKPGKAPKLLIYSASLAISGVPSRFSGSGSGTDFTLTISSLQPEDFATYYCQQSNSWPNTFGGGTKVEIK
notes: Human IgG; constant regions not restated; also called hu v1.1 / hu v1.0
- IC50 [1]: 13.6 nM

B2: TOA-1 variant VH human v2.0 / VL human v1.0 (antibody, V domains shown)
VH: EVQLVQSGAEVKKPGATVKISCKVSGYSFTAYFMNWVQQAPGKGLEWMGRINPNNGDTFYTQKFKGRVTITADTSTDTAYMELSSLRSEDTAVYYCATRDYFGAMDYWGQGTLVTVSS
VL: B1 VL
notes: Human IgG; constant regions not restated; also called hu v2.0 / hu v1.0
- IC50 [1]: ~126 nM

B3: TOA-1 variant VH mouse / VL human v1.0 (antibody, V domains shown)
VH: EVQLQQSGPELVKPGASMKISCKTSGYSFTAYFMNWVKQSHGKSLEWIGRINPNNGDTFYTQKFKGKATLTVDKSSNTAHMELLSLTSEDSAIYYCGRRDYFGAMDYWGQGTSVTVSS
VL: B1 VL
notes: Human IgG from COS-1 conditioned medium; constant regions not restated; also called mu / hu v1.0
- IC50 [1]: 16.3 nM

B4: huTOA-1 v1.0/2.0 (antibody, V domains shown)
VH: B1 VH with T24A, V72R, A79L
VL: EIVMTQSPATLSVSPGERATLSCRASQTISNNLHWYQQKPGQAPRLLIYSASLAISGIPARFSGSGSGTEFTLTISSLQSEDFAVYYCQQSNSWPNTFGGGTKVEIK
notes: Human IgG; constant regions not restated; also called VH human v1.0 / VL human v2.0
- Kd [2]: 16.5 nM
- Kd [3]: 20.9 nM
- IC50 [1]: 5.9 nM

B5: huTOA-1 VH v1.0 / VL v1.3 (antibody, V domains shown)
VH: B1 VH with T24A, V72R, A79L
VL: B1 VL with A43S
notes: Human IgG; constant regions not restated; also called hu v1.0 / hu v1.3
- IC50 (read off the curve) [4]: ~9 nM

B6: huTOA-1 VH v1.0 / VL v1.2 (antibody, V domains shown)
VH: B1 VH with T24A, V72R, A79L
VL: B1 VL with K42E
notes: Human IgG; constant regions not restated; also called hu v1.0 / hu v1.2
- IC50 (read off the curve) [4]: ~9 nM

B7: TOA-1 variant VH human v1.1 / VL human v2.0 (antibody, V domains shown)
VH: B1 VH
VL: B4 VL
notes: Human IgG; constant regions not restated; also called hu v1.1 / hu v2.0
- IC50 [1]: 10.7 nM

B8: TOA-1 variant VH human v2.0 / VL human v1.1 (antibody, V domains shown)
VH: B2 VH
VL: B1 VL with K42E, A43S, Y49K
notes: Human IgG; constant regions not restated; also called hu v2.0 / hu v1.1
- IC50 [1]: ~87.6 nM

B9: TOA-1 variant VH mouse / VL human v1.1 (antibody, V domains shown)
VH: B3 VH
VL: B1 VL with K42E, A43S, Y49K
notes: Human IgG from COS-1 conditioned medium; constant regions not restated; also called mu / hu v1.1
- IC50 [1]: 13.6 nM

B10: TOA-1 variant VH human v1.1 / VL human v1.1 (antibody, V domains shown)
VH: B1 VH
VL: B1 VL with K42E, A43S, Y49K
notes: Human IgG; constant regions not restated; also called hu v1.1 / hu v1.1
- IC50 [1]: 10.1 nM

B11: TOA-1 variant VH human v2.0 / VL human v2.0 (antibody, V domains shown)
VH: B2 VH
VL: B4 VL
notes: Human IgG; constant regions not restated; also called hu v2.0 / hu v2.0
- IC50 [1]: ~37.8 nM

B12: mouse TOA-1 antibody (antibody, mouse IgG1, V domains shown)
VH: B3 VH
VL: AIVLIQSPATLSVTPGDSVSLSCRASQTISNNLHWYQQKSHESPRLLIKSASLAISGIPSRFSGSGSGTDFTLSISSVETEDFGMYFCQQSNSWPNTFGGGTKLEIK
notes: Hybridoma antibody, cloned with mouse IgG1 and mouse Kappa primers; also called muTOA-1; mTOA-1
- binding result [5]: no binding (tested: about 6.7 nM)
- binding result [6]: no binding (tested: about 6.7 nM)
- Kd [2]: 14.7 nM
- Kd [3]: 16.3 nM
- EC50 [7]: 0.4 nM
- EC50 [8]: 0.23 nM
- binding result [9]: no binding (tested: 10.00 ug/ml)
- binding result (Chimeric TrkB (d5TrkA)): no binding (tested: 1.0000 ug/ml)
- binding result (Chimeric TrkA (d4TrkB)): no binding (tested: 10.00 ug/ml)

B13: chimeric TOA-1 antibody (antibody, V domains shown)
VH: B3 VH
VL: B12 VL
notes: also called chiTOA-1; VH mouse / VL mouse
- Kd [2]: 12.1 nM
- Kd [3]: 17 nM
- IC50 [1]: 3.6 nM

B14: BDNF (R&D systems, cat #248-BD) (ligand, human, UniProt P23560 129-247, looked up)
chain: HSDPARRGELSVCDSISEWVTAADKKTAVDMSGGTVTVLEKVPVSKGQLKQYFYETKCNPMGYTKEGCRGIDKRHWNSQCRTTQSYVRALTMDSKKRIGWRFIRIDTSCVCTLTIKRGR
- EC50, SHC1 recruitment assay [10]: 1.02 nM
- EC50, SHC1 recruitment assay [11]: 5.45 nM
- Cre-luciferase reporter, EC50 (FIG. 38) [12]: 5.2 nM
